± gives the standard deviation of the averaged measurements.
Key:
MCF7 = test: percentage of EdU-negative (G0-arrested) nuclei per well, 72 h; higher = more G0 arrest; conditions: reference: sequence is the full UniProt precursor, the tested protein was the secreted form or ectodomain
hTERT-HMEC = test: as above; conditions: reference: sequence is the full UniProt precursor, the tested protein was the secreted form or ectodomain
[1] = protein concentration 0.03125 µM
[2] = protein concentration 0.3125 µM
[3] = protein concentration 0.0225 µM
[4] = protein concentration 0.0239275 µM
[5] = protein concentration 0.239275 µM
[6] = protein concentration 0.00975 µM
[7] = protein concentration 0.0975 µM
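Note: secreted proteins added to cultured cells, EdU pulse at the end, nuclei found by Hoechst imaging, EdU status from nuclear versus surrounding ring intensity ratio, PBS as neutral control.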

Row | Sequence | percentage of EdU-negative (MCF7; [3]) [%] | percentage of EdU-negative (MCF7; protein concentration 0.225 µM) [%] | percentage of EdU-negative (hTERT-HMEC; [3]) [%] | percentage of EdU-negative (hTERT-HMEC; protein concentration 0.225 µM) [%] | also measured
1 | MQAAWLLGALVVPQLLGFGHGARGAEREWEGGWGGAQEEEREREALMLKHLQEALGLPAGRGDENPAGTVEGKEDWEMEEDQGEEEEEEATPTPSSGPSPSPTPEDIVTYILGRLAGLDAGLHQLHVRLHALDTRVVELTQGLRQLRNAAGDTRDAVQALQEAQGRAEREHGRLEGCLKGLRLGHKCFLLSRDFEAQAAAQARCTARGGSLAQPADRQQMEALTRYLRAALAPYNWPVWLGVHDRRAEGLYLFENGQRVSFFAWHRSPRPELGAQPSASPHPLSPDQPNGGTLENCVAQASDDGSWWDHDCQRRLYYVCEFPF [Q9Y240] | – | – | – | – | percentage of EdU-negative (MCF7; [1]): 24.4 ± 0.81%; percentage of EdU-negative (MCF7; [2]): 27.6 ± 1.3%; percentage of EdU-negative (hTERT-HMEC; [1]): 6.19 ± 0.7%; percentage of EdU-negative (hTERT-HMEC; [2]): 6.64 ± 1.2%
2 | MWSGWWLWPLVAVCTADFFRDEAERIMRDSPVIDGHNDLPWQLLDMFNNRLQDERANLTTLAGTHTNIPKLRAGFVGGQFWSVYTPCDTQNKDAVRRTLEQMDVVHRMCRMYPETFLYVTSSAGIRQAFREGKVASLIGVEGGHSIDSSLGVLRALYQLGMRYLTLTHSCNTPWADNWLVDTGDSEPQSQGLSPFGQRVVKELNRLGVLIDLAHVSVATMKATLQLSRAPVIFSHSSAYSVCASRRNVPDDVLRLVKQTDSLVMVNFYNNYISCTNKANLSQVADHLDHIKEVAGARAVGFGGDFDGVPRVPEGLEDVSKYPDLIAELLRRNWTEAEVKGALADNLLRVFEAVEQASNLTQAPEEEPIPLDQLGGSCRTHYGYSSGASSLHRHWGLLLASLAPLVLCLSLL | 25 ± 0.35 | 25.2 ± 0.86 | 5.01 ± 0.58 | 5.87 ± 0.22 | –
3 | MAQLCGLRRSRAFLALLGSLLLSGVLAADRERSIHDFCLVSKVVGRCRASMPRWWYNVTDGSCQLFVYGGCDGNSNNYLTKEECLKKCATVTENATGDLATSRNAADSSVPSAPRRQDSEDHSSDMFNYEEYCTANAVTGPCRASFPRWYFDVERNSCNNFIYGGCRGNKNSYRSEEACMLRCFRQQENPPLPLGSKVVVLAGLFVMVLILFLGASMVYLIRVARRNQERALRTVWSSGDDKEQLVKNTYVL | 24.2 ± 2 | 25.4 ± 0.69 | 4.91 ± 0.26 | 5.37 ± 0.98 | –
4 | MIFLLLMLSLELQLHQIAALFTVTVPKELYIIEHGSNVTLECNFDTGSHVNLGAITASLQKVENDTSPHRERATLLEEQLPLGKASFHIPQVQVRDEGQYQCIIIYGVAWDYKYLTLKVKASYRKINTHILKVPETDEVELTCQATGYPLAEVSWPNVSVPANTSHSRTPEGLYQVTSVLRLKPPPGRNFSCVFWNTHVRELTLASIDLQSQMEPRTHPTWLLHIFIPFCIIAFIFIATVIALRKQLCQKLYSSKDTTKRPVTTTKREVNSAI [Q9BQ51] | 23.9 ± 0.28 | 24.6 ± 0.78 | 4.79 ± 0.078 | 7.37 ± 0.34 | –
5 | MSMSPTVIILACLGFFLDQSVWAHVGGQDKPFCSAWPSAVVPQGGHVTLRCHYRRGFNIFTLYKKDGVPVPELYNRIFWNSFLISPVTPAHAGTYRCRGFHPHSPTEWSAPSNPLVIMVTGLYEKPSLTARPGPTVRAGENVTLSCSSQSSFDIYHLSREGEAHELRLPAVPSINGTFQADFPLGPATHGETYRCFGSFHGSPYEWSDPSDPLPVSVTGNPSSSWPSPTEPSFKTGIARHLHAVIRYSVAIILFTILPFFLLHRWCSKKKDAAVMNQEPAGHRTVNREDSDEQDPQEVTYAQLDHCIFTQRKITGPSQRSKRPSTDTSVCIELPNAEPRALSPAHEHHSQALMGSSRETTALSQTQLASSNVPAAGI | 24.4 ± 3.2 | 25.68 ± 0.13 | 5.29 ± 1.2 | 4.83 ± 0.51 | –
6 | MRTLTILTAVLLVALQAKAEPLQAEDDPLQAKAYEADAQEQRGANDQDFAVSFAEDASSSLRALGSTRAFTCHCRRSCYSTEYSYGTCTVMGINHRFCCL | 26.4 ± 0.96 | 26.4 ± 0.12 | 4.63 ± 0.29 | 5.921 ± 0.038 | –
7 | MASVVLPSGSQCAAAAAAAAPPGLRLRLLLLLFSAAALIPTGDGQNLFTKDVTVIEGEVATISCQVNKSDDSVIQLLNPNRQTIYFRDFRPLKDSRFQLLNFSSSELKVSLTNVSISDEGRYFCQLYTDPPQESYTTITVLVPPRNLMIDIQKDTAVEGEEIEVNCTAMASKPATTIRWFKGNTELKGKSEVEEWSDMYTVTSQLMLKVHKEDDGVPVICQVEHPAVTGNLQTQRYLEVQYKPQVHIQMTYPLQGLTREGDALELTCEAIGKPQPVMVTWVRVDDEMPQHAVLSGPNLFINNLNKTDNGTYRCEASNIVGKAHSDYMLYVYDPPTTIPPPTTTTTTTTTTTTTILTIITDSRAGEEGSIRAVDHAVIGGVVAVVVFAMLCLLIILGRYFARHKGTYFTHEAKGADDAADADTAIINAEGGQNNSEEKKEYFI [Q9BY67] | 24.5 ± 1.3 | 24.7 ± 1.1 | 4.74 ± 0.29 | 5.2 ± 0.79 | –
8 | MGTLSAPPCTQRIKWKGLLLTASLLNFWNLPTTAQVTIEAEPTKVSEGKDVLLLVHNLPQNLTGYIWYKGQMRDLYHYITSYVVDGEIIIYGPAYSGRETAYSNASLLIQNVTREDAGSYTLHIIKGDDGTRGVTGRFTFTLHLETPKPSISSSNLNPRETMEAVSLTCDPETPDASYLWWMNGQSLPMTHSLKLSETNRTLFLLGVTKYTAGPYECEIRNPVSASRSDPVTLNLLPKLPKPYITINNLNPRENKDVLNFTCEPKSENYTYIWWLNGQSLPVSPRVKRPIENRILILPSVTRNETGPYQCEIRDRYGGIRSDPVTLNVLYGPDLPRIYPSFTYYRSGEVLYLSCSADSNPPAQYSWTINEKFQLPGQKLFIRHITTKHSGLYVCSVRNSATGKESSKSMTVEVSDWTVP | – | – | – | – | percentage of EdU-negative (MCF7; [4]): 25 ± 2.2%; percentage of EdU-negative (MCF7; [5]): 25.7 ± 1.8%; percentage of EdU-negative (hTERT-HMEC; [4]): 5.16 ± 0.84%; percentage of EdU-negative (hTERT-HMEC; [5]): 7.5 ± 0.26%
9 | MGADGETVVLKNMLIGINLILLGSMIKPSECQLEVTTERVQRQSVEEEGGIANYNTSSKEQPVVFNHVYNINVPLDNLCSSGLEASAEQEVSAEDETLAEYMGQTSDHESQVTFTHRINFPKKACPCASSAQVLQELLSRIEMLEREVSVLRDQCNANCCQESAATGQLDYIPHCSGHGNFSFESCGCICNEGWFGKNCSEPYCPLGCSSRGVCVDGQCICDSEYSGDDCSELRCPTDCSSRGLCVDGECVCEEPYTGEDCRELRCPGDCSGKGRCANGTCLCEEGYVGEDCGQRQCLNACSGRGQCEEGLCVCEEGYQGPDCSAVAPPEDLRVAGISDRSIELEWDGPMAVTEYVISYQPTALGGLQLQQRVPGDWSGVTITELEPGLTYNISVYAVISNILSLPITAKVATHLSTPQGLQFKTITETTVEVQWEPFSFSFDGWEISFIPKNNEGGVIAQVPSDVTSFNQTGLKPGEEYIVNVVALKEQARSPPTSASVSTVIDGPTQILVRDVSDTVAFVEWIPPRAKVDFILLKYGLVGGEGGRTTFRLQPPLSQYSVQALRPGSRYEVSVSAVRGTNESDSATTQFTTEIDAPKNLRVGSRTATSLDLEWDNSEAEVQEYKVVYSTLAGEQYHEVLVPRGIGPTTRATLTDLVPGTEYGVGISAVMNSQQSVPATMNARTELDSPRDLMVTASSETSISLIWTKASGPIDHYRITFTPSSGIASEVTVPKDRTSYTLTDLEPGAEYIISVTAERGRQQSLESTVDAFTGFRPISHLHFSHVTSSSVNITWSDPSPPADRLILNYSPRDEEEEMMEVSLDATKRHAVLMGLQPATEYIVNLVAVHGTVTSEPIVGSITTGIDPPKDITISNVTKDSVMVSWSPPVASFDYYRVSYRPTQVGRLDSSVVPNTVTEFTITRLNPATEYEISLNSVRGREESERICTLVHTAMDNPVDLIATNITPTEALLQWKAPVGEVENYVIVLTHFAVAGETILVDGVSEEFRLVDLLPSTHYTATMYATNGPLTSGTISTNFSTLLDPPANLTASEVTRQSALISWQPPRAEIENYVLTYKSTDGSRKELIVDAEDTWIRLEGLLENTDYTVLLQAAQDTTWSSITSTAFTTGGRVFPHPQDCAQHLMNGDTLSGVYPIFLNGELSQKLQVYCDMTTDGGGWIVFQRRQNGQTDFFRKWADYRVGFGNVEDEFWLGLDNIHRITSQGRYELRVDMRDGQEAAFASYDRFSVEDSRNLYKLRIGSYNGTAGDSLSYHQGRPFSTEDRDNDVAVTNCAMSYKGAWWYKNCHRTNLNGKYGESRHSQGINWYHWKGHEFSIPFVEMKMRPYNHRLMAGRKRQSLQF | – | – | – | – | percentage of EdU-negative (MCF7; [6]): 26.36 ± 0.12%; percentage of EdU-negative (MCF7; [7]): 26.4 ± 0.85%; percentage of EdU-negative (hTERT-HMEC; [6]): 5.09 ± 0.52%; percentage of EdU-negative (hTERT-HMEC; [7]): 6.03 ± 1.7%
10 | MMLHSALGLCLLLVTVSSNLAIAIKKEKRPPQTLSRGWGDDITWVQTYEEGLFYAQKSKKPLMVIHHLEDCQYSQALKKVFAQNEEIQEMAQNKFIMLNLMHETTDKNLSPDGQYVPRIMFVDPSLTVRADIAGRYSNRLYTYEPRDLPLLIENMKKALRLIQSEL [Q8TD06] | 26.1 ± 2.8 | 24.6 ± 0.5 | 5.91 ± 1.9 | 6.43 ± 1.1 | –

From the supplement of paper PMC11316812
